Source: patent US20180185450A1 (Sanofi, published 2018)
Like-named read-outs stand apart in the source and are kept apart here. Numbered stars: 1 amine (or outer) side, 2 acyl side, 3 side chain; on linkers, the order of the positions; unused ones are H or OH. Square brackets hold non-standard residues; d marks the D form. Side chains are listed from the residue outwards. Ends that are not written are not given here. γGlu = O=C(O)[C@H](CCC(=O)[*:2])N[*:1]; X70 = not defined here; x53 = not defined here; Aib = CC(C)(N)C(=O)O

Tests used:
Test in all cases: cell-based or functional assay
human glucagon receptor [1] = biological target: T1, human glucagon receptor (human, UniProt P47871 26-477)
T1 sequence (P47871 26-477): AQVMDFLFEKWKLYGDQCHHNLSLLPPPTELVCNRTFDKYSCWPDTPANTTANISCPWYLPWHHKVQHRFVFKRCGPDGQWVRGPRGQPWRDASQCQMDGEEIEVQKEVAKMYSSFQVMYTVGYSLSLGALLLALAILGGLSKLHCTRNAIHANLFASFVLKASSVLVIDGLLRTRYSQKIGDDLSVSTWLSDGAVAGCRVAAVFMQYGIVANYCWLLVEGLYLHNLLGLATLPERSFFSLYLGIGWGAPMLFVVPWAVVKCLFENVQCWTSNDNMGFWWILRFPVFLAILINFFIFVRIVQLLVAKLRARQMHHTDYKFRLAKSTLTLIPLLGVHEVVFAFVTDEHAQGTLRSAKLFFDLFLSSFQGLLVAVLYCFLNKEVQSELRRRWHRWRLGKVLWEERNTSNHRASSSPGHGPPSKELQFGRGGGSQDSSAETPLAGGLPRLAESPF

human GLP-1 receptor [2] = biological target: T2, human GLP-1 receptor (human, UniProt P43220 24-463)
human glucagon receptor [3] = biological target: T1, human glucagon receptor; remark: listed apart in the source
human GLP-1 receptor [4] = biological target: T2, human GLP-1 receptor; remark: listed apart in the source

Binder | EC50 hGlucagon-R (cAMP) (human glucagon receptor [1]) | EC50 hGLP-1R (cAMP) (human GLP-1 receptor [2]) | EC50 hGlucagon-R (cAMP) (human glucagon receptor [3]) | EC50 hGLP-1R (cAMP) (human GLP-1 receptor [4])
H[Aib]QGTFTSDLSKQK([γGlu-x53])DSRRAQDFIEWLKNGGPSSGAPPPS-NH2 (reading uncertain) [SEQ ID NO: 115] | 1.9 pM | 2.4 pM | 1.9 pM | 2.4 pM
H[Aib]QGTFTSDLSKQK([γGlu-X70])EEEAARLFIEWLKAGGPSSGAPPPS-NH2 (reading uncertain) [SEQ ID NO: 215] | 42.6 pM | 5.3 pM | 42.6 pM | 5.3 pM
HXQGTFTSDLSKQKDSRRAQDFIEWLKAGGPSSGAPPPS (dSer at 2; K(γE-x53) at 14; C-terminal NH2) [SEQ ID NO: 74] | 1.3 pM | 4.2 pM | 1.3 pM | 4.2 pM
HXQGTFTSDLSKQMDSRRAQDFIEWLKXGGPSSGAPPPS (dSer at 2; Aib at 28; C-terminal NH2) [SEQ ID NO: 187] | 195 pM | 152 pM |  | 
HXQGTFTSDLSKQMESKAAQDFIEWLKAGGPSSGAPPPS (dSer at 2; C-terminal NH2) [SEQ ID NO: 189] | 1680 pM | 5.6 pM |  | 
HXQGTFTSDLSKQKDSRRAQDFIEWLKRGGPSSGAPPPS (dSer at 2; K(γE-x53) at 14; C-terminal NH2) [SEQ ID NO: 125] | 6.9 pM | 31.4 pM | 6.9 pM | 31.4 pM
HXQGTFTSDLSKQMDSRRAQDFIEWLKAGGPSSGAPPPS (dSer at 2; C-terminal NH2) [SEQ ID NO: 188] | 186 pM | 89.6 pM |  | 
HXQGTFTSDLSKQKESRRAXDFIEWLKAGGPSSGAPPPS (dSer at 2; K(γE-x53) at 14; Aib at 20; C-terminal NH2) [SEQ ID NO: 75] | 12.5 pM | 11.1 pM | 12.5 pM | 11.1 pM
HXQGTFTSDLSKQKDSKAAQDFIEWLKAGGPSSGAPPPS (dSer at 2; K(γE-x53) at 14; C-terminal NH2) [SEQ ID NO: 30] | 7 pM | 3.2 pM | 7 pM | 3.2 pM
HXQGTFTSDLSKQKDSRRAQDFIEWLKXGGPSSGAPPPS (dSer at 2; K(γE-x53) at 14; Aib at 28; C-terminal NH2) [SEQ ID NO: 78] | 1.6 pM | 17.8 pM | 1.6 pM | 17.8 pM
HXQGTFTSDLSKQKDSRRAQDFIEWLKKGGPSSGAPPPS (dSer at 2; K(γE-x53) at 14; C-terminal NH2) [SEQ ID NO: 84] | 4.3 pM | 8.1 pM | 4.3 pM | 8.1 pM
HXQGTFTSDLSKQMESRRAXDFIEWLKAGGPSSGAPPPS (dSer at 2; Aib at 20; C-terminal NH2) [SEQ ID NO: 190] | 1560 pM | 21.3 pM |  | 
HXQGTFTSDLSKQMDSRRAQDFIEWLKKGGPSSGAPPPS (dSer at 2; C-terminal NH2) [SEQ ID NO: 186] | 590 pM | 102 pM |  | 
HXQGTFTSDLSKQKESRRAQDFIEWLKAGGPSSGAPPPS (dSer at 2; K(γE-x53) at 14; C-terminal NH2) [SEQ ID NO: 4] | 4 pM | 5 pM | 4 pM | 5 pM
HXQGTFTSDLSKQKESKAAQDFIEWLKAGGPSSGAPPPS (dSer at 2; K(γE-x53) at 14; C-terminal NH2) [SEQ ID NO: 24] | 9.8 pM | 2 pM | 9.4 pM | 1.9 pM
H[Aib]QGTFTSDLSKQK([γGlu-X70])DEEAARLFIEWLKAGGPSSGAPPPS-NH2 (reading uncertain) [SEQ ID NO: 216] | 19.5 pM | 4.7 pM | 19.5 pM | 4.7 pM
HXQGTFTSDLSKQLDEEAARLFIEWLKAGGPSSGAPPPS (Aib at 2; C-terminal NH2) [SEQ ID NO: 224] | 2930 pM | 1.3 pM |  | 
HXQGTFTSDLSKQLEEEAARLFIEWLKAGGPSSGAPPPS (Aib at 2; C-terminal NH2) [SEQ ID NO: 225] | 2870 pM | 0.7 pM |  | 
